# Laboratory results taken from publication PMC4383067 (Acta Neuropathologica Communications, 2015).
# Target: Amyloid fibrils of full-length human PrP (human, UniProt P04156 23-230)
# Assay: static light scattering kinetics
# Conditions: both partners purified
binder,measurement,value
"Full-length human acetylcholinesterase (dimeric, recombinant) (enzyme, also called AChE; dimeric AChE) EGREDAELLVTVRGGRLRGIRLKTPGGPVSAFLGIPFAEPPMGPRRFLPPEPKQPWSGVVDATTFQSVCYQYVDTLYPGFEGTEMWNPNRELSEDCLYLNVWTPYPRPTSPTPVLVWIYGGGFYSGASSLDVYDGRFLVQAERTVLVSMNYRVGAFGFLALPGSREAPGNVGLLDQRLALQWVQENVAAFGGDPTSVTLFGESAGAASVGMHLLSPPSRGLFHRAVLQSGAPNGPWATVGMGEARRRATQLAHLVGCPPGGTGGNDTELVACLRTRPAQVLVNHEWHVLPQESVFRFSFVPVVDGDFLSDTPEALINAGDFHGLQVLVGVVKDEGSYFLVYGAPGFSKDNESLISRAEFLAGVRVGVPQVSDLAAEAVVLHYTDWLHPEDPARLREALSDVVGDHNVVCPVAQLAGRLAAQGARVYAYVFEHRASTLSWPLWMGVPHGYEIEFIFGIPLDPSRNYTAEEKIFAQRLMRYWANFARTGDPNEPRDPKAPQWPPYTAGAQQYVSLDLRPLEVRRGLRAQACAFWNRFLPKLLSATDTLDEAERQWKAEFHRWSSYMVHWKNQFDHYSKQDRCSDL",stoichiometry N,1
